Legend:
[1] = target: FBD(4,5)-SK chimeric protein
[2] = target: FBD(4,5)-SK-FBD(4,5) chimeric protein
[3] = target: T1, Met-SK (recombinant SK purified from E. coli)
T1 chain: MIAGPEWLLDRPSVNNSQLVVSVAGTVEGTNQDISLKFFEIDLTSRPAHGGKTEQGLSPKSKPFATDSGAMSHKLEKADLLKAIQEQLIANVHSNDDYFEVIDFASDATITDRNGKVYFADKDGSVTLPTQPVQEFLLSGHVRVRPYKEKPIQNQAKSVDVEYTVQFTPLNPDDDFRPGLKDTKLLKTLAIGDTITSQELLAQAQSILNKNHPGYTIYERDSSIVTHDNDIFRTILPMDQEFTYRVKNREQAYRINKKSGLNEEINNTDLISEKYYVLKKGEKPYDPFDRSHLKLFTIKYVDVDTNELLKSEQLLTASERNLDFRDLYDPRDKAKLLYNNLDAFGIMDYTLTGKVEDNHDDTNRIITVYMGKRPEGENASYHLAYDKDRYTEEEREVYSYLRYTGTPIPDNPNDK

[4] = target: T2, SK-FBD(1,2) chimeric protein
T2 chain: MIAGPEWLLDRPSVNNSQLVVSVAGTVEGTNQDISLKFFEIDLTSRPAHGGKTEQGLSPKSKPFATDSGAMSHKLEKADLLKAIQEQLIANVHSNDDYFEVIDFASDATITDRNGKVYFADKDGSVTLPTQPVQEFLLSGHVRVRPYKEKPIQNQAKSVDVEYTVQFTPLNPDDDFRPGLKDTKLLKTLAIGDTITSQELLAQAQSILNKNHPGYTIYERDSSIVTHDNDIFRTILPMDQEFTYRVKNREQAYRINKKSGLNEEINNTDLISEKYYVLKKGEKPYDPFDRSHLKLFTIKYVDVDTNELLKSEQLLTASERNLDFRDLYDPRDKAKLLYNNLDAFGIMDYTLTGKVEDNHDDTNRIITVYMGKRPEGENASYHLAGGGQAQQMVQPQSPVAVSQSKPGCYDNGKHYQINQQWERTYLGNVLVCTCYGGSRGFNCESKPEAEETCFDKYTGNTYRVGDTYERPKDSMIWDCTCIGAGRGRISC

[5] = target: SK-FBD(4,5) chimeric protein, SK[residues 1-383]-(gly-gly-gly)-[FBD(4,5)]
[6] = target: T3, native SK from Streptococcus sp. (ATCC 12449)
T3 chain: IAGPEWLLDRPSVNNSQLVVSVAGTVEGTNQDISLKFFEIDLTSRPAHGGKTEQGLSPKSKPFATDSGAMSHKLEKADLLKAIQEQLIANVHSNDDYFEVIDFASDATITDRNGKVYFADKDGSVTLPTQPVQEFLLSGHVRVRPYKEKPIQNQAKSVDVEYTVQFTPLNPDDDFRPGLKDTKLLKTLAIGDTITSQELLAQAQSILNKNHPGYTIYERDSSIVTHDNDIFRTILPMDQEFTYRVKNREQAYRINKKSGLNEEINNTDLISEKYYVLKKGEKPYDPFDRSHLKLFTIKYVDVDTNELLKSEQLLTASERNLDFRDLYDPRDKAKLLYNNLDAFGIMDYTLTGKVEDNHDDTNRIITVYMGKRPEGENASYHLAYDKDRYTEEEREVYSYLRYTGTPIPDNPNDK

B1: human plasminogen (protein)
chain: EPLDDYVNTQGASLFSVTKKQLGAGSIEECAAKCEEDEEFTCRAFQYHSKEQQCVIMAENRKSSIIIRMRDVVLFEKKVYLSECKTGNGKNYRGTMSKTKNGITCQKWSSTSPHRPRFSPATHPSEGLEENYCRNPDNDPQGPWCYTTDPEKRYDYCDILECEEECMHCSGENYDGKISKTMSGLECQAWDSQSPHAHGYIPSKFPNKNLKKNYCRNPDRELRPWCFTTDPNKRWELCDIPRCTTPPPSSGPTYQCLKGTGENYRGNVAVTVSGHTCQHWSAQTPHTHNRTPENFPCKNLDENYCRNPDGKRAPWCHTTNSQVRWEYCKIPSCDSSPVSTEQLAPTAPPELTPVVQDCYHGDGQSYRGTSSTTTTGKKCQSWSSMTPHRHQKTPENYPNAGLTMNYCRNPDADKGPWCFTTDPSVRWEYCNLKKCSGTEASVVAPPPVVLLPDVETPSEEDCMFGNGKGYRGKRATTVTGTPCQDWAAQEPHRHSIFTPETNPRAGLEKNYCRNPDGDVGGPWCYTTNPRKLYDYCDVPQCAAPSFDCGKPQVEPKKCPGRVVGGCVAHPHSWPWQVSLRTRFGMHFCGGTLISPEWVLTAAHCLEKSPRPSSYKVILGAHQEVNLEPHVQEIEVSRLFLEPTRKDIALLKLSSPAVITDKVIPACLPSPNYVVADRTECFITGWGETQGTFGAGLLKEAQLPVIENKVCNRYEFLNGRVQSTELCAGHLAGGTDSCQGDSGGPLVCFEKDKYILQGVTSWGLGCARPNKPGVYVRVSRFVTWIEGVMRNN
[1]
  Kplg (Km for HPG), steady-state HPG activation, chromogenic one-stage assay, linear phase after the lag: 0.16 µM
[2]
  Kplg (Km for HPG), steady-state HPG activation, chromogenic one-stage assay, linear phase after the lag: 0.2 µM
[3]
  Kplg (Km for HPG), steady-state HPG activation, chromogenic one-stage assay: 0.18 µM
[4]
  Kplg (Km for HPG), steady-state HPG activation, chromogenic one-stage assay, linear phase after the lag: 0.18 µM
[5]
  Kplg (Km for HPG), steady-state HPG activation, chromogenic one-stage assay, linear phase after the lag: 0.15 µM
[6]
  Kplg (Km for HPG), steady-state HPG activation, chromogenic one-stage assay: 0.14 µM
